# Source: patent publication US20180094062A1 (Hoffmann-La Roche, published 2018)
# Legend:
# [1] = target: T1, recombinant Thermus thermophilus SlyD FKBP-Her3 (TtSlyD-FKBP-Her3); assay: SPR Biacore T100, antibody captured, 25 C
# T1 construct: expressed in E. coli, the N-terminal methionine can be present or not; also called thermo SlyD-Her3; T.T.SlyD-Her3
# T1 chain: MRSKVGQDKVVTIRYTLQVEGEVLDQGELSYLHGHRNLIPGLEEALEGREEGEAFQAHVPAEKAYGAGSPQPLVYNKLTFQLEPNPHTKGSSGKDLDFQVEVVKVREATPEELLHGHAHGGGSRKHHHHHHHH
# [2] = target: T2, HER4 ECD-HRG complex (Heregulin-complexed Her-4 ECD) (human, UniProt Q15303 26-651); assay: SPR Biacore T100, antibody captured, 25 C
# T2 construct: Her-4 ECD incubated with a 5-fold molar excess of Heregulin
# T2 sequence 1: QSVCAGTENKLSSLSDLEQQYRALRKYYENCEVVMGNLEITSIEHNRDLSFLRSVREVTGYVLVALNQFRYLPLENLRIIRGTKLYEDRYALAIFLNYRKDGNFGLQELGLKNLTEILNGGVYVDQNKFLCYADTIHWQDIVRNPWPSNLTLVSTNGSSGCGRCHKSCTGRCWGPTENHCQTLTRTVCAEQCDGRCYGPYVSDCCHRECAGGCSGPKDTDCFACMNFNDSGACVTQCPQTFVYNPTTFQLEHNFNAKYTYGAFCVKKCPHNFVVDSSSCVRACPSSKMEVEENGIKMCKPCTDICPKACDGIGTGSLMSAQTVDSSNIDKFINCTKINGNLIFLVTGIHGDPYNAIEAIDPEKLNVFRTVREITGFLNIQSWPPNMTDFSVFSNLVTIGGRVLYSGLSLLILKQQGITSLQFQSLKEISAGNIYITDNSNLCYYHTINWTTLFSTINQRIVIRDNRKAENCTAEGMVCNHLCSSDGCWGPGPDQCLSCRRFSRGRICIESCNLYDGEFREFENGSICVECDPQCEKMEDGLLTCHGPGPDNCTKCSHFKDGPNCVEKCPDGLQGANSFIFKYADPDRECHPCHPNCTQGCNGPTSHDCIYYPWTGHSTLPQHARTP
# T2 sequence 2: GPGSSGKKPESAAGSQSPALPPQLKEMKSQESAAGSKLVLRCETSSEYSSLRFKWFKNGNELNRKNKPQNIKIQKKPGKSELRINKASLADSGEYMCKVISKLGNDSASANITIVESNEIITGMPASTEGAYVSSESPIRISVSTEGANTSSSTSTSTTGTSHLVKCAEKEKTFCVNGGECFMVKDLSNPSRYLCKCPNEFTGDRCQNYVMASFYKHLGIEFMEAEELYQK
# [3] = target: T3, human recombinant HER3 Extracellular Domain (HER3 ECD) (human, UniProt P21860 20-643); assay: SPR Biacore T100, antibody captured, 25 C
# T3 construct: 68 kDa; also called human-Her3-ECD
# TtSlyD-Wildtype = target: T4, TtSlyD-Wildtype; assay: SPR Biacore T100, antibody captured, 25 C
# T4 construct: scaffold without insert; N-terminal methionine can be present or not; also called T.T.SlyD-wt; wild type Thermus thermophilus SlyD protein
# T4 chain: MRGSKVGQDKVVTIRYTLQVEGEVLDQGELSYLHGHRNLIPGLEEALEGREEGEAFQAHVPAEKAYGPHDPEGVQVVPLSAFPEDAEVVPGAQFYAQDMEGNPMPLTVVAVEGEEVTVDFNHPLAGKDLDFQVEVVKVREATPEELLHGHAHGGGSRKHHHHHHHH
# [4] = target: T5, human Heregulin fragment (HRG) (human); assay: SPR Biacore T100, antibody captured, 25 C
# T5 construct: a 44 kDa homodimeric protein, expressed in FreeStyle 293-F cells; also called Heregulin beta (HRG)
# T5 chain: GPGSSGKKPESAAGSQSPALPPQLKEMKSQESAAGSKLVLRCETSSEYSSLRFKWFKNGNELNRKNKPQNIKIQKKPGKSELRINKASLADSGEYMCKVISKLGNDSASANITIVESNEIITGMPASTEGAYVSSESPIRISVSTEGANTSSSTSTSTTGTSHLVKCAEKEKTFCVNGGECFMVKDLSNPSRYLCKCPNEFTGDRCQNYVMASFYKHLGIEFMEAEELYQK
# [5] = target: T6, HER4 ECD peptide hairpin (β-hairpin of HER4), overlapping immobilized 15-mer peptides (human); assay: CelluSpots array of overlapping 15-mer peptides of the HER family hairpins, chemiluminescence
# T6 construct: CelluSpots library of 15-mers as for HER3; cysteines replaced by serines; also called HER4 β-hairpin
# T6 peptide: PQTFVYNPTTFQLEHNFNA
# [6] = target: T7, HER1, full length, on transfected HEK293 cells (human, UniProt P00533 25-1210); assay: IHC on HEK293 cells transiently transfected with full length HER1
# T7 construct: HEK293 transiently transfected with a plasmid coding for full length HER1; also called EGFR
# Protocol: All selected clones were tested for reactivity and specificity in IHC. […] After an additional fixation in formalin overnight the Agarose blocks were embedded in paraffin. Untransfected HEK293 cells were used as negative controls and treated accordingly to the transfected cells. After paraffin embedding 3 μm thin sections were prepared using a microtome. The sections were mounted on glass microscopy slides and dried for 2 h. All further steps of the immunohistochemical staining procedure were carried out using a Ventana Benchmark XT. The slides were dewaxed and antigen retrieval was performed by applying heat for 1 hour. For antigen retrieval the Ventana buffer CC1 was used. The antibodies were used at a concentration of 1 μg/ml. For the detection of bound antibody the Ventana UltraView detection kit was used.
# [7] = target: T8, HER3 ECD-HRG complex (Heregulin-activated Her-3 ECD) (human, UniProt P21860 20-643); assay: SPR Biacore 3000, antibody captured, Biacore two-state model, apparent KD from ka1 and kd2, 25 C; apparent KD of the two-state model, kd2 / ka1
# T8 construct: receptor-ligand complex made by preincubating HER3 ECD with a five-fold molar excess of Heregulin; also called Heregulin/Her-3 ECD; Heregulin-complexed Her-3 ECD
# Protocol: (§1) A CM5 series sensor was mounted into the system and was normalized in HBS-ET buffer (10 mM HEPES pH 7.4, 150 mM NaCl, 3 mM EDTA, 0.005% w/v Tween 20) according to the manufacturer's instructions. The sample buffer was the system buffer supplemented with 1 mg/ml CMD (Carboxymethyldextran). The system operated at 25° C. 10000 RU RAM-Fey (relative units of Fey-fragment Rabbit Anti-Mouse IgG/Jackson Laboratories) were immobilized according to the manufacturer's instructions using EDC/NHS chemistry on all flow cells. The sensor was deactivated using 1M ethanolamine.
# [8] = target: T8, HER3 ECD-HRG complex …; assay: SPR Biacore 3000, antibody captured, 25 C
# Protocol: as §1
binder,measurement,setting,value
"anti-HER3 antibody M-08-11 (antibody, V domains shown, mouse monoclonal antibody from hybridoma, tested as hybridoma supernatant or as antibody; also called M-011) VH: QAYLQQSGAELMRPGASVRMSCQASGYTFTSYTIHWLKQTPRQGLEWIGAIYPRNGDFSYNQKFKDKASLTVDTSSSTAYMHLSSLTSEDSAVYFCARTINYGDWFAYWGQGTLVTVSA VL: DIQMIQSPASLFVSEGETVIITCRASENIYSNLAWYHQKKGKSPQVLVYAAIKLADGVPLRFSGSGSGTQFSLKINSLQSEDFGSYYCQHFWGPPYTFGSGTNLEIK",MR (Molar Ratio),[1],1.4
same,binding result,[2],no binding (tested: 90 nM)
same,MR (Molar Ratio),[3],0.5
same,binding result,TtSlyD-Wildtype,no binding (tested: 90 nM)
same,binding result,[4],no binding (tested: 90 nM)
same,binding result,[5],no binding
same,binding result,[6],no binding
same,Kd,[7],18 nM
same,MR (Molar Ratio),[8],1.1
